From PMC10200994, “A family-wide assessment of latent STAT transcription factor interactions reveals divergent dimer repertoires” (The Journal of Biological Chemistry, 2023)

B1: STAT1 (unphosphorylated, wild-type), fluorophore fusion (natural protein, UniProt P42224 1-750, looked up)
chain: MSQWYELQQLDSKFLEQVHQLYDDSFPMEIRQYLAQWLEKQDWEHAANDVSFATIRFHDLLSQLDDQYSRFSLENNFLLQHNIRKSKRNLQDNFQEDPIQMSMIIYSCLKEERKILENAQRFNQAQSGNIQSTVMLDKQKELDSKVRNVKDKVMCIEHEIKSLEDLQDEYDFKCKTLQNREHETNGVAKSDQKQEQLLLKKMYLMLDNKRKEVVHKIIELLNVTELTQNALINDELVEWKRRQQSACIGGPPNACLDQLQNWFTIVAESLQQVRQQLKKLEELEQKYTYEHDPITKNKQVLWDRTFSLFQQLIQSSFVVERQPCMPTHPQRPLVLKTGVQFTVKLRLLVKLQELNYNLKVKVLFDKDVNERNTVKGFRKFNILGTHTKVMNMEESTNGSLAAEFRHLQLKEQKNAGTRTNEGPLIVTEELHSLSFETQLCQPGLVIDLETTSLPVVVISNVSQLPSGWASILWYNMLVAEPRNLSFFLTPPCARWAQLSEVLSWQFSSVTKRGLNVDQLNMLGEKLLGPNASPDGLIPWTRFCKENINDKNFPFWLWIESILELIKKHLLPLWNDGCIMGFISKERERALLKDQQPGTFLLRFSESSREGAITFTWVERSQNGGEPDFHAVEPYTKKELSAVTFPDIIRNYKVMAAENIPENPLKYLYPNIDKDHAFGKYYSRPKEAPEPMELDGPKGTGYIKTELISVSEVHPSRLQTTDNLLPMSPEEFDEVSRIVGSVEFDSMMNTV
notes: STAT1, full-length wild type; One molecule for bait and test copies; Three to five further heterologous residues flank the NES or NLS; cloning details only on request; also called U-STAT1; S1; source: HeLa, transiently transfected, in cells; not shown: mCherry (test copy) or mEGFP (bait copy), C-terminal, kept
B2: STAT4 (unphosphorylated, wild-type), fluorophore fusion (natural protein, UniProt Q14765 1-748, looked up)
chain: MSQWNQVQQLEIKFLEQVDQFYDDNFPMEIRHLLAQWIENQDWEAASNNETMATILLQNLLIQLDEQLGRVSKEKNLLLIHNLKRIRKVLQGKFHGNPMHVAVVISNCLREERRILAAANMPVQGPLEKSLQSSSVSERQRNVEHKVAAIKNSVQMTEQDTKYLEDLQDEFDYRYKTIQTMDQSDKNSAMVNQEVLTLQEMLNSLDFKRKEALSKMTQIIHETDLLMNTMLIEELQDWKRRQQIACIGGPLHNGLDQLQNCFTLLAESLFQLRRQLEKLEEQSTKMTYEGDPIPMQRTHMLERVTFLIYNLFKNSFVVERQPCMPTHPQRPLVLKTLIQFTVKLRLLIKLPELNYQVKVKASIDKNVSTLSNRRFVLCGTNVKAMSIEESSNGSLSVEFRHLQPKEMKSSAGGKGNEGCHMVTEELHSITFETQICLYGLTIDLETSSLPVVMISNVSQLPNAWASIIWYNVSTNDSQNLVFFNNPPPATLSQLLEVMSWQFSSYVGRGLNSDQLHMLAEKLTVQSSYSDGHLTWAKFCKEHLPGKSFTFWTWLEAILDLIKKHILPLWIDGYVMGFVSKEKERLLLKDKMPGTFLLRFSESHLGGITFTWVDHSESGEVRFHSVEPYNKGRLSALPFADILRDYKVIMAENIPENPLKYLYPDIPKDKAFGKHYSSQPCEVSRPTERGDKGYVPSVFIPISTIRSDSTEPHSPSDLLPMSPSVYAVLRENLSPTTIETAMKSPYSAE
notes: STAT4, full-length wild type; One molecule for bait and test copies; also called U-STAT4; STAT4-NES; source: HeLa, transiently transfected, in cells; not shown: mCherry (test copy) or mEGFP (bait copy), C-terminal, kept
B3: STAT5A (unphosphorylated, wild-type), fluorophore fusion (natural protein, UniProt P42229 1-794, looked up)
chain: MAGWIQAQQLQGDALRQMQVLYGQHFPIEVRHYLAQWIESQPWDAIDLDNPQDRAQATQLLEGLVQELQKKAEHQVGEDGFLLKIKLGHYATQLQKTYDRCPLELVRCIRHILYNEQRLVREANNCSSPAGILVDAMSQKHLQINQTFEELRLVTQDTENELKKLQQTQEYFIIQYQESLRIQAQFAQLAQLSPQERLSRETALQQKQVSLEAWLQREAQTLQQYRVELAEKHQKTLQLLRKQQTIILDDELIQWKRRQQLAGNGGPPEGSLDVLQSWCEKLAEIIWQNRQQIRRAEHLCQQLPIPGPVEEMLAEVNATITDIISALVTSTFIIEKQPPQVLKTQTKFAATVRLLVGGKLNVHMNPPQVKATIISEQQAKSLLKNENTRNECSGEILNNCCVMEYHQATGTLSAHFRNMSLKRIKRADRRGAESVTEEKFTVLFESQFSVGSNELVFQVKTLSLPVVVIVHGSQDHNATATVLWDNAFAEPGRVPFAVPDKVLWPQLCEALNMKFKAEVQSNRGLTKENLVFLAQKLFNNSSSHLEDYSGLSVSWSQFNRENLPGWNYTFWQWFDGVMEVLKKHHKPHWNDGAILGFVNKQQAHDLLINKPDGTFLLRFSDSEIGGITIAWKFDSPERNLWNLKPFTTRDFSIRSLADRLGDLSYLIYVFPDRPKDEVFSKYYTPVLAKAVDGYVKPQIKQVVPEFVNASADAGGSSATYMDQAPSPAVCPQAPYNMYPQNPDHVLDQDGEFDLDETMDVARHVEELLRRPMDSLDSRLSPPAGLFTSARGSLS
notes: STAT5A, full-length wild type; One molecule for bait and test copies; also called U-STAT5A; STAT5A-NES; source: HeLa, transiently transfected, in cells; not shown: mCherry (test copy) or mEGFP (bait copy), C-terminal, kept
B4: STAT5B (unphosphorylated, wild-type), fluorophore fusion (natural protein, UniProt P51692 1-787, looked up)
chain: MAVWIQAQQLQGEALHQMQALYGQHFPIEVRHYLSQWIESQAWDSVDLDNPQENIKATQLLEGLVQELQKKAEHQVGEDGFLLKIKLGHYATQLQNTYDRCPMELVRCIRHILYNEQRLVREANNGSSPAGSLADAMSQKHLQINQTFEELRLVTQDTENELKKLQQTQEYFIIQYQESLRIQAQFGPLAQLSPQERLSRETALQQKQVSLEAWLQREAQTLQQYRVELAEKHQKTLQLLRKQQTIILDDELIQWKRRQQLAGNGGPPEGSLDVLQSWCEKLAEIIWQNRQQIRRAEHLCQQLPIPGPVEEMLAEVNATITDIISALVTSTFIIEKQPPQVLKTQTKFAATVRLLVGGKLNVHMNPPQVKATIISEQQAKSLLKNENTRNDYSGEILNNCCVMEYHQATGTLSAHFRNMSLKRIKRSDRRGAESVTEEKFTILFESQFSVGGNELVFQVKTLSLPVVVIVHGSQDNNATATVLWDNAFAEPGRVPFAVPDKVLWPQLCEALNMKFKAEVQSNRGLTKENLVFLAQKLFNNSSSHLEDYSGLSVSWSQFNRENLPGRNYTFWQWFDGVMEVLKKHLKPHWNDGAILGFVNKQQAHDLLINKPDGTFLLRFSDSEIGGITIAWKFDSQERMFWNLMPFTTRDFSIRSLADRLGDLNYLIYVFPDRPKDEVYSKYYTPVPCESATAKAVDGYVKPQIKQVVPEFVNASADAGGGSATYMDQAPSPAVCPQAHYNMYPQNPDSVLDTDGDFDLEDTMDVARRVEELLGRPMDSQWIPHAQS
notes: STAT5B, full-length wild type; One molecule for bait and test copies; also called U-STAT5B; STAT5B-NES; source: HeLa, transiently transfected, in cells; not shown: mCherry (test copy) or mEGFP (bait copy), C-terminal, kept

Tests used:
Assay in all cases: co-localization assay (relocalisation of a test protein by a compartment-targeted bait, fluorescence microscopy); HeLa cells co-expressing bait (STAT-NES or STAT-NLS, or wild-type STAT2 with its own export activity; green) and test protein without heterologous signal (red); no cytokine; fixed 20 h after transfection; Pearson correlation coefficient rP in cells with equimolar to 4-fold excess of bait
[1] = biological target: T1, STAT2 (unphosphorylated, wild-type), fluorophore fusion (UniProt P52630 1-851); conditions: partners not purified
T1 construct: STAT2, full-length wild type; used as bait through its own nuclear export activity; No heterologous NES or NLS on wild-type STAT2; also called U-STAT2; S2; source: HeLa, transiently transfected, in cells; not shown: mEGFP or mCherry, C-terminal, kept

[2] = biological target: the molecule itself
[3] = biological target: B3; conditions: partners not purified

T1 sequence (P52630 whole entry, the tested form may be a part): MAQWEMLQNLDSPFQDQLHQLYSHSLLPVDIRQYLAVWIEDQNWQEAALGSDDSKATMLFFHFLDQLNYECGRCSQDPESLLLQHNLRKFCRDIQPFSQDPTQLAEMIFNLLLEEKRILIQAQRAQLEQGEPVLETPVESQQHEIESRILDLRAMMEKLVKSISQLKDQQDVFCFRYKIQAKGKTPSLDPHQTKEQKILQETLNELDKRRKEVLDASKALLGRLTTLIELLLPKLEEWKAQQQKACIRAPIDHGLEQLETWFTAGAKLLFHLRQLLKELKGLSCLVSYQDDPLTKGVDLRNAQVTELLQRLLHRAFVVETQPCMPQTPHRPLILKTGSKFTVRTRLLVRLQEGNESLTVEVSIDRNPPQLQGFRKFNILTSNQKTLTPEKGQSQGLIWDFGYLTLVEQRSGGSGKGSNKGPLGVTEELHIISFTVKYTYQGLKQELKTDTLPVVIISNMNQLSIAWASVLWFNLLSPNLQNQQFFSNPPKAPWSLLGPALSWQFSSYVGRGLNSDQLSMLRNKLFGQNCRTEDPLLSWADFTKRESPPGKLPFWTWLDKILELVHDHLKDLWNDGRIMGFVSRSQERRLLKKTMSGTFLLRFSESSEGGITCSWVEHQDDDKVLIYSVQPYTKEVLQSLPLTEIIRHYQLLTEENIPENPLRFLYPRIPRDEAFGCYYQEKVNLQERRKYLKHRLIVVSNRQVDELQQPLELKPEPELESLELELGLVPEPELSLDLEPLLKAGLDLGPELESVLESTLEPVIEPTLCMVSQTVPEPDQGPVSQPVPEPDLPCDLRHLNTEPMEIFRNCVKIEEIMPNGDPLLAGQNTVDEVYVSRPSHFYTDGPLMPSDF

| Binder | Pearson correlation coefficient rP (co-localization) [1] | Pearson correlation coefficient rP (co-localization) [2] | Pearson correlation coefficient rP (co-localization) [3] |
| --- | --- | --- | --- |
| B1 | 0.97 | – | – |
| B2 | – | ≥ 0.94 | – |
| B3 | – | ≥ 0.94 | – |
| B4 | – | ≥ 0.94 | 0.97 |
